# Experiments:
# [1] = tested on: T1, O=[N+]([O-])c1ccc(O[C@@H]2O[C@@H](CO)[C@H](O)[C@H]2O)cc1; assay: purified protein; type: biochemical, Talaromyces amestolkiae; settings: standard reaction: 50 mM sodium acetate pH 5, 50 °C, 0.1% BSA, substrate 0.0625-16 mM
# T1 construct: mature form without 18-residue signal peptide (54 bp), gene 1223 bp with one intron, 368 residues, 39 kDa, N-terminal CBM1, Ser/Thr-rich linker and GH62 domain; secreted from Pichia pastoris GS115 (pPIC9), N-glycosylated, about 50 kDa on SDS-PAGE; forward primer encodes QASLYGQ after the EcoRI site, reverse primer encodes C-terminal LLTLSK
# [2] = tested on: T2, O=[N+]([O-])c1ccc(O[C@@H]2O[C@@H](CO)[C@H](O)[C@H]2O)cc1; assay: purified protein; type: biochemical, Talaromyces amestolkiae; settings: standard reaction: 50 mM sodium acetate pH 5, 50 °C, 0.1% BSA, substrate 0.0625-16 mM
# T2 construct: secreted from Pichia pastoris GS115 (pPIC9), N-glycosylated, about 37 kDa on SDS-PAGE; forward primer encodes LPTDETA after the EcoRI site, reverse primer encodes C-terminal PGLLTHK
# Chain of ARA-1 (Talaromyces amestolkiae) (chain, as listed by the source): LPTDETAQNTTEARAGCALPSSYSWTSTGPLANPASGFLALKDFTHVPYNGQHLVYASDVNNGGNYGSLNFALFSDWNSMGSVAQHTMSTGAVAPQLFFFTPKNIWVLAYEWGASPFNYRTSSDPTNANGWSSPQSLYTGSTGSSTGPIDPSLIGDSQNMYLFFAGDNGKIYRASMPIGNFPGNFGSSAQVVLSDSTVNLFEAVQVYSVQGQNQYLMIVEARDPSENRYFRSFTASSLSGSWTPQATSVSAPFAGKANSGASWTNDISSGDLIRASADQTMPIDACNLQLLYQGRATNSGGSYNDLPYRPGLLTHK
# Chain of ARA-2 (Talaromyces amestolkiae) (chain, as listed by the source): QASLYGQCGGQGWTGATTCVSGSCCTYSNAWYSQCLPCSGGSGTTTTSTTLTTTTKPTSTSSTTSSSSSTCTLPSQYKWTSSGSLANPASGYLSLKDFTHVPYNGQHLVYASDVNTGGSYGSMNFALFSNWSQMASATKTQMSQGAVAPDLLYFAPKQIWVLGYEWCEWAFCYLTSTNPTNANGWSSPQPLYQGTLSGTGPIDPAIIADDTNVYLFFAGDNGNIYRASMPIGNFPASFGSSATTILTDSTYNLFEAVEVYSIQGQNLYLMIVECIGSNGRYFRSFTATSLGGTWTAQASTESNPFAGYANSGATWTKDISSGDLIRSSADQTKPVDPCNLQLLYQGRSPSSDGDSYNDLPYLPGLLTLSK
Substance,Km [1],kcat [1],kcat/Km [1],Km [2],kcat [2],kcat/Km [2]
ARA-2 (Talaromyces amestolkiae),1.48 ± 0.08 mM,0.41 ± 0.01 s⁻¹,280 ± 10 M⁻¹ s⁻¹,,,
ARA-1 (Talaromyces amestolkiae),,,,8.97 ± 0.06 mM,0.05 ± 0.001 s⁻¹,5 ± 0.4 M⁻¹ s⁻¹

# Source: publication PMC10418624, “Expression and Characterization of Two α-L-Arabinofuranosidases from Talaromyces amestolkiae: Role of These Enzymes in Biomass Valorization” (International Journal of Molecular Sciences, 2023)
